Source: patent US20100034834A1

How the values were obtained:
[1] = biological target: g9-154 (gp100) peptide … presented on peptide-pulsed T2 cells (UniProt P61769); assay: cell-based or functional assay
[2] = biological target: NY-ESO-1 peptide … presented on peptide-pulsed T2 cells (UniProt P61769); assay: cell-based or functional assay

Substance | IFN-γ secreted by transfected CD4+ T cells (Patient) with peptide-pulsed T2 cells [1] [pg/mL] | IFN-γ secreted by transfected CD8+ T cells (Patient) with peptide-pulsed T2 cells [1] [pg/mL] | IFN-γ secreted by transfected CD4+ T cells (Patient) with peptide-pulsed T2 cells [2] [pg/mL] | IFN-γ secreted by transfected CD8+ T cells (Patient) with peptide-pulsed T2 cells [2] [pg/mL]
1G4 mut1 (G70A): WT 1G4 alpha chain + beta chain G70A (TCR) | < 30 | < 30 | 6380 | 10200
1G4 mut2 (A71I): WT 1G4 alpha chain + beta chain A71I (TCR) | < 30 | < 30 | 8970 | 10100
1G4 mut3 (G70A/A71I): WT 1G4 alpha chain + beta chain G70A/A71I (TCR) | < 30 | < 30 | 10700 | 8860
